# Data from PMC9352680, “A comprehensive thermodynamic model for RNA binding by the Saccharomyces cerevisiae Pumilio protein PUF4”.
# Where a chain is given by its changes, count along the chain named. Names may count otherwise.
# T1: PUF4 RNA-binding domain (Saccharomyces cerevisiae, UniProt P25339 537-888)
# T1 sequence: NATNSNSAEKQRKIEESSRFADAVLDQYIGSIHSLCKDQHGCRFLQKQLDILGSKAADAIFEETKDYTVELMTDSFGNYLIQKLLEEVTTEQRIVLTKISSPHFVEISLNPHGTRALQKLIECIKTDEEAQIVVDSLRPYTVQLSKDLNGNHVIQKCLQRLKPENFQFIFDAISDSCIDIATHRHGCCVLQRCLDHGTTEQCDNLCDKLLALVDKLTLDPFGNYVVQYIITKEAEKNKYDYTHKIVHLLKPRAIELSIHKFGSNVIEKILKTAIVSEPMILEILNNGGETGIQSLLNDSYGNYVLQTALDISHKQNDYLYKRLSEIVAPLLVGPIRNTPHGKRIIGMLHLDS
# B1: Ic_S4_P4E.1_K4.1_C4.1_H4.1_A4.1_[T5C]_[A6C]_F4.1_[T8A]_[A9T]_T4.1 (ssRNA)
# RNA: UUUGACAACUGAUCGUUCUUUCUUGUACCUAUUUCUUUCUCGAUCAGUUGUCUUU
# B2: Ic_S4_P4E.1_K4.1_C4.1_H4.1_A4.1_[T5C]_[A6C]_F4.1_[A9T]_T4.1 (ssRNA)
# RNA: B1 RNA with A31U
# B3: Ic_S4_P4E.1_K4.1_C4.1_H4.1_A4.1_[T5C]_[T7G]_F4.1_[T8C]_[A9C]_T4.1 (ssRNA)
# RNA: B1 RNA with C29A, U30G, A31C, U32C
# B4: Ic_S4_P4E.1_K4.1_C4.1_H4.1_A4.1_[T5C]_[T7A]_F4.1_[T8G]_[A9C]_T4.1 (ssRNA)
# RNA: B1 RNA with C29A, U30A, A31G, U32C
# B5: Ic_S4_P4E.1_K4.1_C4.1_H4.1_A4.1_[T5C]_[A6T]_F4.1_[T8C]_[A9T]_T4.1 (ssRNA)
# RNA: B1 RNA with C29U, A31C
# B6: Ic_S4_P4E.1_K4.1_C4.1_H4.1_A4.1_[T5C]_[A6T]_F4.1_[T8C]_[A9C]_T4.1 (ssRNA)
# RNA: B1 RNA with C29U, A31C, U32C
# B7: Ic_S4_P4E.1_K4.1_C4.1_H4.1_A4.1_[T5C]_F4.1_[A9C]_T4.1 (ssRNA)
# RNA: B1 RNA with C29A, A31U, U32C
# B8: Ic_S4_P4E.1_K4.1_C4.1_H4.1_A4.1_[T5A]_[A6C]_[T7G]_F4.1_[T8G]_[A9T]_T4.1 (ssRNA)
# RNA: B1 RNA with C28A, U30G, A31G
# B9: Ic_S4_P4E.1_K4.1_C4.1_H4.1_A4.1_[T5C]_[A6T]_[T7G]_F4.1_[T8G]_[A9T]_T4.1 (ssRNA)
# RNA: B1 RNA with C29U, U30G, A31G
# B10: Ic_S4_P4E.1_K4.1_C4.1_H4.1_A4.1_[T5A]_[A6C]_[T7G]_F4.1_[A9T]_T4.1 (ssRNA)
# RNA: B1 RNA with C28A, U30G, A31U
# B11: Ic_S4_P4E.1_K4.1_C4.1_H4.1_A4.1_[T5C]_[A6T]_[T7C]_F4.1_[T8C]_[A9G]_T4.1 (ssRNA)
# RNA: B1 RNA with C29U, U30C, A31C, U32G
# B12: Ic_S4_P4E.1_K4.1_C4.1_H4.1_A4.1_[T5C]_[T7G]_F4.1_[A9G]_T4.1 (ssRNA)
# RNA: B1 RNA with C29A, U30G, A31U, U32G
# B13: Ic_S4_P4E.1_K4.1_C4.1_H4.1_A4.1_[T5C]_[T7C]_F4.1_[T8G]_[A9C]_T4.1 (ssRNA)
# RNA: B1 RNA with C29A, U30C, A31G, U32C
# B14: Ic_S4_P4E.1_K4.1_C4.1_H4.1_A4.1_[T5A]_[A6C]_[T7G]_F4.1_[A9C]_T4.1 (ssRNA)
# RNA: B1 RNA with C28A, U30G, A31U, U32C
# B15: Ic_S4_P4E.1_K4.1_C4.1_H4.1_A4.1_[T5C]_[T7A]_F4.1_[T8C]_[A9T]_T4.1 (ssRNA)
# RNA: B1 RNA with C29A, U30A, A31C
# B16: Ic_S4_P4E.1_K4.1_C4.1_H4.1_A4.1_[T5C]_[A6C]_F4.1_T4.1 (ssRNA)
# RNA: B1 RNA with A31U, U32A
# B17: Ic_S4_P4E.1_K4.1_C4.1_H4.1_A4.1_[T5C]_[A6T]_[T7G]_F4.1_T4.1 (ssRNA)
# RNA: B1 RNA with C29U, U30G, A31U, U32A
# B18: Ic_S4_P4E.1_K4.1_C4.1_H4.1_A4.1_[T5C]_[T7G]_F4.1_[T8C]_[A9T]_T4.1 (ssRNA)
# RNA: B1 RNA with C29A, U30G, A31C
# B19: Ic_S4_P4E.1_K4.1_C4.1_H4.1_A4.1_[T5C]_[A6T]_[T7C]_F4.1_[T8A]_[A9G]_T4.1 (ssRNA)
# RNA: B1 RNA with C29U, U30C, U32G
# B20: Ic_S4_P4E.1_K4.1_C4.1_H4.1_A4.1_[T5C]_[A6T]_F4.1_[A9T]_T4.1 (ssRNA)
# RNA: B1 RNA with C29U, A31U
# B21: Ic_S4_P4E.1_K4.1_C4.1_H4.1_A4.1_[T5C]_[T7C]_F4.1_[A9T]_T4.1 (ssRNA)
# RNA: B1 RNA with C29A, U30C, A31U
# B22: Ic_S4_P4E.1_K4.1_C4.1_H4.1_A4.1_[T5C]_[A6C]_F4.1_[T8A]_T4.1 (ssRNA)
# RNA: B1 RNA with U32A
# B23: Ic_S4_P4E.1_K4.1_C4.1_H4.1_A4.1_[T5C]_[A6T]_[T7G]_F4.1_[A9T]_T4.1 (ssRNA)
# RNA: B1 RNA with C29U, U30G, A31U
# B24: Ic_S4_P4E.1_K4.1_C4.1_H4.1_A4.1_[T5C]_[T7C]_F4.1_[T8C]_[A9G]_T4.1 (ssRNA)
# RNA: B1 RNA with C29A, U30C, A31C, U32G
# B25: Ic_S4_P4E.1_K4.1_C4.1_H4.1_A4.1_[T5C]_F4.1_[A9G]_T4.1 (ssRNA)
# RNA: B1 RNA with C29A, A31U, U32G
# B26: Ic_S4_P4E.1_K4.1_C4.1_H4.1_A4.1_[T5C]_[A6T]_[T7C]_F4.1_[A9C]_T4.1 (ssRNA)
# RNA: B1 RNA with C29U, U30C, A31U, U32C
# Target: T1, PUF4 RNA-binding domain
# Assay: Mg; RNA-MaP; 20 mM Na-HEPES pH 7.4, 30 mM KOAc, 0.75 mM MgCl2, 0.1% Tween-20, 5% glycerol, 0.1 mg/mL BSA, 2 mM DTT; 25 C; 0.0125-409.6 nM protein
# Conditions: tags: N-His6-TEV cleaved; C-SNAP kept, Cy3B-labelled; label: tethered on chip by stalled RNA polymerase
row,Binder,Kd [µM]
1,UCUCUUUGUAAAUCAUCUCUU (ssRNA) [Ib_S1_P4E.1_K4.1_C4.1_H4.1_A4.1_[T5A]_F4.1_[T8C]_T4.1],0.0391
2,UCUCUUUGUAUCUGAUCUCUU (ssRNA) [Ic_S1_P4E.1_K4.1_C4.1_H4.1_A4.1_[A6C]_F4.1_[T8G]_T4.1],0.0765
3,UCUCUUUGUAUUUGAUCUCUU (ssRNA) [Ib_S1_P4E.1_K4.1_C4.1_H4.1_A4.1_[A6T]_F4.1_[T8G]_T4.1],0.458
4,B1,0.0129
5,B2,0.0108
6,B3,0.0894
7,B4,0.7
8,B5,0.0325
9,B6,0.0945
10,B7,0.00355
11,B8,1.29
12,B9,0.975
13,B10,0.0843
14,B11,0.551
15,B12,0.00903
16,B13,0.0901
17,B14,0.919
18,B15,0.0394
19,B16,0.00174
20,B17,0.00386
21,B18,0.0551
22,B19,0.819
23,B20,0.00637
24,B21,0.00437
25,B22,0.0157
26,B23,0.0546
27,B24,0.072
28,B25,0.00385
29,B26,0.0233
